Common to all, as to assay: ELISA; dose-response: host component coated as in the single-dose assay; increasing concentrations of recombinant protein (0–6 µM LipL21, 0–1.5 µM LipL41) in PBS-BSA, 2 h 37°C; KD from non-linear regression, one site-specific binding (GraphPad Prism 7)
On the technique in general: ELISA stands for enzyme-linked immunosorbent assay.

Assay [1] addresses elastin (human aorta) (human) (UniProt P15502).
For assay [2], the target named is E-cadherin (human recombinant) (human) (UniProt P12830).
In assay [3] the target is laminin (human placenta) (human).
The target in the next assay is collagen IV.
The target of assay [4] is collagen type I (rat tail) (rat) (UniProt P02454).
Chain of UniProt P02454 (P02454 152-1207, chain 1 of 2): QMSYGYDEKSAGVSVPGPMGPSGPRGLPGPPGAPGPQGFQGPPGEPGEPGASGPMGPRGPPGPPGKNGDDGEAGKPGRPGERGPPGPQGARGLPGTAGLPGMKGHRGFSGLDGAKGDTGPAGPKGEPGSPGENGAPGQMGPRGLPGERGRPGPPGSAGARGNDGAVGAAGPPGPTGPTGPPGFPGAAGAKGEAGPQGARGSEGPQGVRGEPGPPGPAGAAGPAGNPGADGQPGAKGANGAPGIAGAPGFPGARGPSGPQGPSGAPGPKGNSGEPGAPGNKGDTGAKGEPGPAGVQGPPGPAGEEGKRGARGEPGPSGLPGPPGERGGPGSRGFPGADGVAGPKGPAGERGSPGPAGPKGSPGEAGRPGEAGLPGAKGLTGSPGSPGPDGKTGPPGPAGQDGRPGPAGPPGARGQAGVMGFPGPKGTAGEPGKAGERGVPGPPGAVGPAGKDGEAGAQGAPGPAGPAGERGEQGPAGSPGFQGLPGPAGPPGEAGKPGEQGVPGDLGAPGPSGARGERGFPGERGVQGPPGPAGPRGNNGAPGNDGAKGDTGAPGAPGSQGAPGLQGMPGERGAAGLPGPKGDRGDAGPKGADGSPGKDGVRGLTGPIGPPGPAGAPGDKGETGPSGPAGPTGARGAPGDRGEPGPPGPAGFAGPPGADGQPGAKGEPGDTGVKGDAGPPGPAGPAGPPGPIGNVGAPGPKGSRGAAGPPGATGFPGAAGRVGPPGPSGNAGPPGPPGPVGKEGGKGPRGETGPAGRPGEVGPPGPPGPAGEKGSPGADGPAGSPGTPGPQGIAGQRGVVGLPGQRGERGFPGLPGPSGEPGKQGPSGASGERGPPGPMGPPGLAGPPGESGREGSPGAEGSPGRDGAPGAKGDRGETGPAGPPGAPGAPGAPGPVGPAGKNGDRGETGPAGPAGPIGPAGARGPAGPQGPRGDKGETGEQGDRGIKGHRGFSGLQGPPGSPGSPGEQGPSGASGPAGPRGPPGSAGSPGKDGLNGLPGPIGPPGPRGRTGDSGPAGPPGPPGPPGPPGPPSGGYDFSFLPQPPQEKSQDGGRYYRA
Chain of UniProt P02454 (P02466 86-1125, chain 2 of 2, further chain): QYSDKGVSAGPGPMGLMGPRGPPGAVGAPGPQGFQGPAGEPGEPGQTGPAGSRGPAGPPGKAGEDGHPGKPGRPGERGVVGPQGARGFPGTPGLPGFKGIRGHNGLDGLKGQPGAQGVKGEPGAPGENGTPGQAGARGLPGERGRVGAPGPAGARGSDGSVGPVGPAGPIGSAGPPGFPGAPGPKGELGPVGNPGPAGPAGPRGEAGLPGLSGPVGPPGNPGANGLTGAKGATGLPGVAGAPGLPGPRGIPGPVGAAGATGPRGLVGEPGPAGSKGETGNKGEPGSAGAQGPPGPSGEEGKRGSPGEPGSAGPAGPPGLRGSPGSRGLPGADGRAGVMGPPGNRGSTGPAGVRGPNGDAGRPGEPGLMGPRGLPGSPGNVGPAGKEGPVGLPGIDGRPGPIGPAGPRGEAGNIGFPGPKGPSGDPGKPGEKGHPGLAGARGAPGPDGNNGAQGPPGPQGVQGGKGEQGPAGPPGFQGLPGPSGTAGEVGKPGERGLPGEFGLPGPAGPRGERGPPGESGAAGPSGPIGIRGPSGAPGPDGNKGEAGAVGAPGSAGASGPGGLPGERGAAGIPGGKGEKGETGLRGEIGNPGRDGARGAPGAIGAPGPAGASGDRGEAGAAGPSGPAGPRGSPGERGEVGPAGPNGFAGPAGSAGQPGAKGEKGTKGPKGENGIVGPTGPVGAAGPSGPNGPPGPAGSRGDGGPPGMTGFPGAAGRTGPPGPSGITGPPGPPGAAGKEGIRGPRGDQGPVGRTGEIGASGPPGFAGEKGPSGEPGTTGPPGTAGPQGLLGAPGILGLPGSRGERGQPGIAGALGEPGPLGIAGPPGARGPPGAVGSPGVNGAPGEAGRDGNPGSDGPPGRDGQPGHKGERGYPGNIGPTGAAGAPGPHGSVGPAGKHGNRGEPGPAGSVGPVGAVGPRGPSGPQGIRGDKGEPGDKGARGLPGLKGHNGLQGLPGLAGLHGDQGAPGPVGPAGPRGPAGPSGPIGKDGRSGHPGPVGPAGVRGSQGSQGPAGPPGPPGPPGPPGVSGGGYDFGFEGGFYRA
The target in assay [5] is plasma fibronectin (human plasma) (human).
The target of assay [6] is plasminogen (human plasma) (human).
Assay [7] deals with vitronectin (human plasma) (human).
In assay [8] the target is fibrinogen (human plasma) (human) (UniProt P02671).
Chain of UniProt P02671 (P02671 36-866, chain 1 of 3): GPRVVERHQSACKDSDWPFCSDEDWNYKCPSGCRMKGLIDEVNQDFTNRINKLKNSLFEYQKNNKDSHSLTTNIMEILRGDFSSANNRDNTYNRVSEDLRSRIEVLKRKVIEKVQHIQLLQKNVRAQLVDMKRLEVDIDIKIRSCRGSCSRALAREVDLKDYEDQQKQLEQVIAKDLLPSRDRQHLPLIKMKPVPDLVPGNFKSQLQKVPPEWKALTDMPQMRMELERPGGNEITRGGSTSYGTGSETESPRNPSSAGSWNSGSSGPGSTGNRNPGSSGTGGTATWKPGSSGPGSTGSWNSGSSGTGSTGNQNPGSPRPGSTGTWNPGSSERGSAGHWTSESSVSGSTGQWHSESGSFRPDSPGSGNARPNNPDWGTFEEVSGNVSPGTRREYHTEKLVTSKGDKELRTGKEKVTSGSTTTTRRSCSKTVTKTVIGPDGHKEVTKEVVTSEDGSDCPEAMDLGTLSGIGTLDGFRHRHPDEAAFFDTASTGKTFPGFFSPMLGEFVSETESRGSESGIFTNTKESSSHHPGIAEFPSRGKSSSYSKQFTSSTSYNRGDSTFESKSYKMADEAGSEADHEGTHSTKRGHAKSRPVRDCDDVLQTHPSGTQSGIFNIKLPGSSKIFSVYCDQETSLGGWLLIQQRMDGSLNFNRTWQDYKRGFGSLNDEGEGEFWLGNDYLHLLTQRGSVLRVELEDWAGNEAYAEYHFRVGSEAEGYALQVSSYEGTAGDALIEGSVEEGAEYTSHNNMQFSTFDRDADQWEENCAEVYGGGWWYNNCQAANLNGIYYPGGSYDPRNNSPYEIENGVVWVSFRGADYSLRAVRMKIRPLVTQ
Chain of UniProt P02671 (P02675 45-491, chain 2 of 3, further chain): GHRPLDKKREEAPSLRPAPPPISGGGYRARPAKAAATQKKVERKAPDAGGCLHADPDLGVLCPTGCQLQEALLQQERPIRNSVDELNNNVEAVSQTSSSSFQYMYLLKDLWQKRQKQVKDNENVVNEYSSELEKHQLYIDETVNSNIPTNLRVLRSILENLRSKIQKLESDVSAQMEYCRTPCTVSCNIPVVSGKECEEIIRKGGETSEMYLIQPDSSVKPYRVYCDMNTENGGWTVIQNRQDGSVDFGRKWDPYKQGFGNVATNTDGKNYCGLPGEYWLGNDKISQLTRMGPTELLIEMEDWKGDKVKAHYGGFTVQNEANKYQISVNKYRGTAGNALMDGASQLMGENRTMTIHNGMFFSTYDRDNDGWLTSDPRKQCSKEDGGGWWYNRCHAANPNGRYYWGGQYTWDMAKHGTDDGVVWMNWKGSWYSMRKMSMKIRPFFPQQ
Chain of UniProt P02671 (P02679 27-453, chain 3 of 3, further chain): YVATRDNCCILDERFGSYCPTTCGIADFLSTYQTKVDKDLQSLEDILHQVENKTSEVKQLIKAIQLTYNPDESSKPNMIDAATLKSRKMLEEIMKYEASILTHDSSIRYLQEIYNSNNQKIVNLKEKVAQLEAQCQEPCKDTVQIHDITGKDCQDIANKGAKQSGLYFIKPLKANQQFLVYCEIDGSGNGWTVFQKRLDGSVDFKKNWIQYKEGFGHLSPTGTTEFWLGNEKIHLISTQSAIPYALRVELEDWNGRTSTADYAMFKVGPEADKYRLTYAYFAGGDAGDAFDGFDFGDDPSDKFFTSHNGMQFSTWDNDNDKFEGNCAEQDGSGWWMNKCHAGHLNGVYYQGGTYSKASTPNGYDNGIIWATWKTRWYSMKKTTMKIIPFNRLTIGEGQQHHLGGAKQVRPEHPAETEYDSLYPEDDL

This note sets out measurements from article PMC8632080.

Chain of UniProt P15502 (P15502 27-786): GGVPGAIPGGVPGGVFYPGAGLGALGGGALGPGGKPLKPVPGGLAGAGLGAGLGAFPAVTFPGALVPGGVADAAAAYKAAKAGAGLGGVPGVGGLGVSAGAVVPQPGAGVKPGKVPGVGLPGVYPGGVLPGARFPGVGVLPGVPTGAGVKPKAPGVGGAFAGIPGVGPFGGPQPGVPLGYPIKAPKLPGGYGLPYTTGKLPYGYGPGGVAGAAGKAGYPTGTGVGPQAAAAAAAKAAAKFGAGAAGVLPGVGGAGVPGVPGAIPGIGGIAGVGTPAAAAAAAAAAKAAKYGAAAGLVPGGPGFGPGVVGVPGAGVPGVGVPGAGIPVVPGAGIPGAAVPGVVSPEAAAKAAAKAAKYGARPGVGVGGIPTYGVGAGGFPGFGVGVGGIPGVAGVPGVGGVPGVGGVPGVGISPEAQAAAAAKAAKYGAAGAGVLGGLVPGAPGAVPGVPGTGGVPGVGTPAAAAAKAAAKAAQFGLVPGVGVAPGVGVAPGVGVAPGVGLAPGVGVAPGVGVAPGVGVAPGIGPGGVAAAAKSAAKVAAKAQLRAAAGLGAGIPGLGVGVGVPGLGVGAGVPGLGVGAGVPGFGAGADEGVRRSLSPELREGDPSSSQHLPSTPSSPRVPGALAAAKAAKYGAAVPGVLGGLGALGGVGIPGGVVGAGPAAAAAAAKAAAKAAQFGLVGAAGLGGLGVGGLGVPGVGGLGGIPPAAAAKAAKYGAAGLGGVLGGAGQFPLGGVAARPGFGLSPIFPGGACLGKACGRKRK

Regarding “recombinant LipL41 (LIC12966) (natural protein)”, the Kd is 2720 nM in assay [1], 1380 nM in assay [2], 312 nM in [3] and 537 nM with collagen IV.
Take “recombinant LipL21 (LIC10011) (natural protein)”: the dissociation constant (Kd) in assay [1] came to 171 nM; in assay [4] it was 6140 nM; in [5], 2540 nM; in assay [2], 147 nM; in assay [6], 13.8 nM; in assay [7], 424 nM. The figures for the Kd (in [3]; in [8]; with collagen IV) were 287 nM, 1120 nM and 53.9 nM, respectively.

Broadly, the Kd is a measure of binding affinity in units of concentration.
